Consider 96 substances from the Human Domainome abundance scans (Beltran et al. 2025).

± gives the uncertainty stated by the source.

The data set can be described thus: abundance fitness (aPCA) (normalised: wild type 0, dead -1); higher = more abundant; growth selection in yeast, the domain comes from the species named. As to conditions: Homo sapiens.
The substance “Scaffold attachment factor B2 I36Q, Q14151” registered an abundance fitness of 0.08 ± 0.12. On to “Scaffold attachment factor B2 I36R, Q14151”, for which the abundance fitness was found to be 0.079 ± 0.071. In the case of “Scaffold attachment factor B2 I36S, Q14151” it was 0.127 ± 0.081; in that of “Scaffold attachment factor B2 I36T, Q14151”, 0.173 ± 0.12. In the case of “Scaffold attachment factor B2 I36V, Q14151” it was -0.002 ± 0.091. As for “Scaffold attachment factor B2 K43A, Q14151”, the figure is 0.022 ± 0.097; as for “Scaffold attachment factor B2 K43C, Q14151”, -0.271 ± 0.12.

Regarding “Scaffold attachment factor B2 K43D, Q14151”, the abundance fitness is -0.147 ± 0.11.

Take “Scaffold attachment factor B2 K43E, Q14151”: the abundance fitness is -0.071 ± 0.084. As for “Scaffold attachment factor B2 K43F, Q14151”, the figure is -0.601 ± 0.15. In the case of “Scaffold attachment factor B2 K43G, Q14151” it was -0.172 ± 0.074. As for “Scaffold attachment factor B2 K43I, Q14151”, the figure is -0.599 ± 0.17; as for “Scaffold attachment factor B2 K43L, Q14151”, -0.191 ± 0.089; as for “Scaffold attachment factor B2 K43N, Q14151”, -0.367 ± 0.2.

Regarding “Scaffold attachment factor B2 K43P, Q14151”, the abundance fitness is -0.486 ± 0.12. As for “Scaffold attachment factor B2 K43Q, Q14151”, the figure is -0.124 ± 0.096; as for “Scaffold attachment factor B2 K43R, Q14151”, -0.104 ± 0.076.

Consider “Scaffold attachment factor B2 K43S, Q14151”, for which the abundance fitness is -0.057 ± 0.091. Regarding “Scaffold attachment factor B2 K43T, Q14151”, the abundance fitness is -0.217 ± 0.1. As for “Scaffold attachment factor B2 K43V, Q14151”, the figure is -0.149 ± 0.1; as for “Scaffold attachment factor B2 K43W, Q14151”, -0.359 ± 0.094. In the case of “Scaffold attachment factor B2 K43Y, Q14151” it was -0.961 ± 0.25; in that of “Scaffold attachment factor B2 K44A, Q14151”, -0.067 ± 0.08. As for “Scaffold attachment factor B2 K44C, Q14151”, the figure is -0.48 ± 0.12; as for “Scaffold attachment factor B2 K44D, Q14151”, -0.549 ± 0.19; as for “Scaffold attachment factor B2 K44E, Q14151”, -0.219 ± 0.091.

“Scaffold attachment factor B2 K44F, Q14151”: the abundance fitness was -0.61 ± 0.12. As for “Scaffold attachment factor B2 K44G, Q14151”, the abundance fitness was -0.225 ± 0.072. In the case of “Scaffold attachment factor B2 K44L, Q14151” it was -0.256 ± 0.11. In the case of “Scaffold attachment factor B2 K44M, Q14151” it was -0.379 ± 0.14; in that of “Scaffold attachment factor B2 K44N, Q14151”, -0.27 ± 0.13.

As for “Scaffold attachment factor B2 K44P, Q14151”, the abundance fitness was -0.509 ± 0.088. In the case of “Scaffold attachment factor B2 K44Q, Q14151” it was -0.1 ± 0.18; in that of “Scaffold attachment factor B2 K44R, Q14151”, -0.06 ± 0.071. Regarding “Scaffold attachment factor B2 K44S, Q14151”, the abundance fitness was -0.183 ± 0.083. Take “Scaffold attachment factor B2 K44T, Q14151”: the abundance fitness is -0.347 ± 0.1. As for “Scaffold attachment factor B2 K44V, Q14151”, the abundance fitness was -0.221 ± 0.084. As for “Scaffold attachment factor B2 K44W, Q14151”, the figure is -0.508 ± 0.081. As for “Scaffold attachment factor B2 K44Y, Q14151”, the figure is -0.494 ± 0.15; as for “Scaffold attachment factor B2 K53A, Q14151”, -0.516 ± 0.08. As for “Scaffold attachment factor B2 K53C, Q14151”, the figure is -0.368 ± 0.081.

For the substance “Scaffold attachment factor B2 K53D, Q14151”, the abundance fitness is -0.716 ± 0.22. As for “Scaffold attachment factor B2 K53E, Q14151”, the figure is -0.136 ± 0.091; as for “Scaffold attachment factor B2 K53F, Q14151”, -0.445 ± 0.13. In the case of “Scaffold attachment factor B2 K53G, Q14151” it was -0.473 ± 0.076; in that of “Scaffold attachment factor B2 K53L, Q14151”, -0.326 ± 0.078; in that of “Scaffold attachment factor B2 K53M, Q14151”, -0.338 ± 0.11. In the case of “Scaffold attachment factor B2 K53N, Q14151” it was -0.463 ± 0.14; in that of “Scaffold attachment factor B2 K53P, Q14151”, -0.204 ± 0.099; in that of “Scaffold attachment factor B2 K53Q, Q14151”, -0.274 ± 0.12. For “Scaffold attachment factor B2 K53R, Q14151”, the abundance fitness was -0.047 ± 0.085. In the case of “Scaffold attachment factor B2 K53T, Q14151” it was -0.352 ± 0.11; in that of “Scaffold attachment factor B2 K53V, Q14151”, -0.577 ± 0.083; in that of “Scaffold attachment factor B2 K53W, Q14151”, -0.39 ± 0.11. In the case of “Scaffold attachment factor B2 K53Y, Q14151” it was -0.054 ± 0.43. In the case of “Scaffold attachment factor B2 K61A, Q14151” it was 0.022 ± 0.084. In the case of “Scaffold attachment factor B2 K61C, Q14151”, the abundance fitness was -0.303 ± 0.15. “Scaffold attachment factor B2 K61D, Q14151”: the abundance fitness is -0.082 ± 0.17. As for “Scaffold attachment factor B2 K61G, Q14151”, the figure is -0.015 ± 0.1; as for “Scaffold attachment factor B2 K61H, Q14151”, -0.128 ± 0.11. As to “Scaffold attachment factor B2 K61L, Q14151”, the abundance fitness is -0.282 ± 0.083.

As for “Scaffold attachment factor B2 K61M, Q14151”, the abundance fitness was -0.186 ± 0.11. In the case of “Scaffold attachment factor B2 K61N, Q14151” it was -0.002 ± 0.095. As for “Scaffold attachment factor B2 K61P, Q14151”, the figure is -0.203 ± 0.13; as for “Scaffold attachment factor B2 K61Q, Q14151”, -0.072 ± 0.096. As for “Scaffold attachment factor B2 K61R, Q14151”, the figure is -0.184 ± 0.095.

In the case of “Scaffold attachment factor B2 K61S, Q14151”, the abundance fitness was -0.359 ± 0.091. As for “Scaffold attachment factor B2 K61T, Q14151”, the figure is -0.22 ± 0.17; as for “Scaffold attachment factor B2 K61V, Q14151”, -0.094 ± 0.095; as for “Scaffold attachment factor B2 K61W, Q14151”, -0.357 ± 0.1. In the case of “Scaffold attachment factor B2 K61Y, Q14151” it was -0.792 ± 0.32; in that of “Scaffold attachment factor B2 K62C, Q14151”, -0.303 ± 0.12.

For the substance “Scaffold attachment factor B2 K62D, Q14151”, the abundance fitness was -0.123 ± 0.13. In the case of “Scaffold attachment factor B2 K62E, Q14151” it was -0.002 ± 0.1; in that of “Scaffold attachment factor B2 K62F, Q14151”, -0.385 ± 0.1.

Take “Scaffold attachment factor B2 K62G, Q14151”: the abundance fitness was -0.115 ± 0.07. As for “Scaffold attachment factor B2 K62H, Q14151”, the figure is -0.083 ± 0.15; as for “Scaffold attachment factor B2 K62L, Q14151”, -0.212 ± 0.11. As for “Scaffold attachment factor B2 K62M, Q14151”, the figure is -0.288 ± 0.19; as for “Scaffold attachment factor B2 K62N, Q14151”, -0.246 ± 0.14; as for “Scaffold attachment factor B2 K62P, Q14151”, -0.407 ± 0.2. As for “Scaffold attachment factor B2 K62Q, Q14151”, the figure is -0.125 ± 0.13. Take “Scaffold attachment factor B2 K62R, Q14151”: the abundance fitness was -0.075 ± 0.078. As to “Scaffold attachment factor B2 K62S, Q14151”, the abundance fitness was -0.125 ± 0.095. As for “Scaffold attachment factor B2 K62V, Q14151”, the figure is -0.163 ± 0.1. In the case of “Scaffold attachment factor B2 K62W, Q14151” it was -0.375 ± 0.12. As for “Scaffold attachment factor B2 K62Y, Q14151”, the figure is -0.447 ± 0.37; as for “Scaffold attachment factor B2 K65A, Q14151”, -0.138 ± 0.12; as for “Scaffold attachment factor B2 K65C, Q14151”, -0.145 ± 0.12. Regarding “Scaffold attachment factor B2 K65D, Q14151”, the abundance fitness stood at 0.036 ± 0.14. In the case of “Scaffold attachment factor B2 K65F, Q14151” it was -0.396 ± 0.22. As for “Scaffold attachment factor B2 K65H, Q14151”, the figure is 0.463 ± 0.23; as for “Scaffold attachment factor B2 K65I, Q14151”, -0.241 ± 0.14. As for “Scaffold attachment factor B2 K65L, Q14151”, the figure is -0.205 ± 0.1. Take “Scaffold attachment factor B2 K65M, Q14151”: the abundance fitness is -0.181 ± 0.11. In the case of “Scaffold attachment factor B2 K65N, Q14151” it was -0.148 ± 0.37.
